Our source for the EC50, Max binding intensity (MFI) and EC50 (half-maximal binding concentration) values is patent publication US20240076392A1, “ANTI-CD123 BINDING MOLECULES AND USES THEREOF” (IGM Biosciences, Inc., priority 2021, published 2024).

In experiment [1] the target is human CD123 on CHO cells expressing human CD123 (human) (UniProt P26951). Nature of the experiment: flow cytometry on CHO cells expressing human CD123, 4-parameter fit (direct binding; column headed IC50). (In general: In flow cytometry, cells or beads pass a laser one at a time.)
human CD123 on CHO cells expressing human CD123 (human), sequence (P26951 19-378): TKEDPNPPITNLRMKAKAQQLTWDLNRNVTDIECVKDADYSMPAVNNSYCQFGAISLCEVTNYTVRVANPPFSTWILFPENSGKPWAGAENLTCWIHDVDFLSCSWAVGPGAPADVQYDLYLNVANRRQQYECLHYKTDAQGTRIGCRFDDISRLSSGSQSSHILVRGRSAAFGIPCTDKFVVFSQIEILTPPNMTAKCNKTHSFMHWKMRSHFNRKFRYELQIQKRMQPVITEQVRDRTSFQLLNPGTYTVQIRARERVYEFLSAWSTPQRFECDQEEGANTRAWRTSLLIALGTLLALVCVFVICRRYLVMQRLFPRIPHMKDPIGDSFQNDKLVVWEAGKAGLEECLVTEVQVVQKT
Experiment [2] shares this target. The experiment can be described thus: flow cytometry on CHO cells expressing human CD123, 4-parameter fit.

B1: 32716 IgG (antibody, V domains shown)
VH: QIQLVQSGPELKKPGETVKISCKASGYIFTNYGMNWVKQAPGKSFKWMGWINTYTGESTYSADFKGRFAFSLETSASTAYLHINDLKNEDTATYFCARSGGYDPMDYWGQGTSVTVSS
VL: DIVLTQSPASLAVSLGQRATISCRASESVDNYGNTFMHWYQQKPGQPPKLLIYRASNLESGIPARFSGSGSRTDFTLTINPVEADDVATYYCQQSNEDPPTFGAGTKLELK
Turning to B1, the EC50 (usually the concentration that produces a half-maximal response) in experiment [1] was 0.011 µM. In experiment [2], this molecule yielded a Max binding intensity (MFI) of 910000 MFI.

B2: h32716-1-1 IgG (antibody, V domains shown)
VH: QVQLVQSGAEVKKPGSSVKVSCKASGYIFTNYGMNWVRQAPGQGLEWMGWINTYTGESTYSADFKGRVTITADESTSTAYMELSSLRSEDTAVYYCARSGGYDPMDYWGQGTLVTVSS
VL: DIVMTQSPDSLAVSLGERATINCRASESVDNYGNTFMHWYQQKPGQPPKLLIYRASNLESGVPDRFSGSGSGTDFTLTISSLQAEDVAVYYCQQSNEDPPTFGQGTRLEIK
B2: the EC50 (half-maximal binding concentration) in experiment [1] came to 0.0074 µM. Moreover, the Max binding intensity (MFI) in experiment [2] was determined as 950000 MFI.

B3: h32716-3-1 IgG (antibody, V domains shown)
VH: QVQLVQSGAEVKKPGSSVKVSCKASGYIFTNYGMNWVKQAPGQGFKWMGWINTYTGESTYSADFKGRFTFTLDESTSTAYMELSSLRSEDTAVYYCARSGGYDPMDYWGQGTLVTVSS
VL: DIVMTQSPDSLAVSLGERATINCRASESVDNYGNTFMHWYQQKPGQPPKLLIYRASNLESGVPDRFSGSGSGTDFTLTISSLQAEDVAVYYCQQSNEDPPTFGQGTRLEIK
Regarding B3, the EC50 (half-maximal binding concentration) in experiment [1] came out at 0.01 µM. The molecule also returned a Max binding intensity (MFI) in experiment [2] of 940000 MFI.

B4: h32716-2-1 IgG (antibody, V domains shown)
VH: QVQLVQSGAEVKKPGSSVKVSCKASGYIFTNYGMNWVKQAPGQGLEWMGWINTYTGESTYSADFKGRFTFTLDESTSTAYMELSSLRSEDTAVYYCARSGGYDPMDYWGQGTLVTVSS
VL: DIVMTQSPDSLAVSLGERATINCRASESVDNYGNTFMHWYQQKPGQPPKLLIYRASNLESGVPDRFSGSGSGTDFTLTISSLQAEDVAVYYCQQSNEDPPTFGQGTRLEIK
B4: the EC50 (half-maximal binding concentration) in experiment [1] came to 0.011 µM. This molecule returned a Max binding intensity (MFI) in experiment [2] of 930000 MFI.

B5: h32716-4-2 IgG (antibody, V domains shown)
VH: QVQLVQSGPELKKPGASVKVSCKASGYIFTNYGMNWVRQAPGQGLEWMGWINTYTGESTYSADFKGRFVFSLDTSVSTAYLQISSLKAEDTAVYYCARSGGYDPMDYWGQGTLVTVSS
VL: DIQMTQSPSSLSASVGDRVTITCRASESVDNYGNTFMHWYQQKPGKAPKLLIYRASNLESGVPSRFSGSGSGTDFTFTISSLQPEDIATYYCQQSNEDPPTFGQGTKVEIK
B5 showed an EC50 (half-maximal binding concentration) in experiment [1] of 0.0068 µM. Also, in experiment [2], the Max binding intensity (MFI) worked out at 980000 MFI.

B6: h32716-6-2 IgG (antibody, V domains shown)
VH: QVQLVQSGPELKKPGASVKVSCKASGYIFTNYGMNWVKQAPGQGFKWMGWINTYTGESTYSADFKGRFVFSLDTSVSTAYLQISSLKAEDTAVYYCARSGGYDPMDYWGQGTLVTVSS
VL: DIQMTQSPSSLSASVGDRVTITCRASESVDNYGNTFMHWYQQKPGKAPKLLIYRASNLESGVPSRFSGSGSGTDFTFTISSLQPEDIATYYCQQSNEDPPTFGQGTKVEIK
Regarding B6, the EC50 (half-maximal binding concentration) in experiment [1] is 0.011 µM. In addition, in experiment [2], the Max binding intensity (MFI) was determined as 1e+06 MFI.

B7: h32716-5-2 IgG (antibody, V domains shown)
VH: QVQLVQSGPELKKPGASVKVSCKASGYIFTNYGMNWVKQAPGQGLEWMGWINTYTGESTYSADFKGRFVFSLDTSVSTAYLQISSLKAEDTAVYYCARSGGYDPMDYWGQGTLVTVSS
VL: DIQMTQSPSSLSASVGDRVTITCRASESVDNYGNTFMHWYQQKPGKAPKLLIYRASNLESGVPSRFSGSGSGTDFTFTISSLQPEDIATYYCQQSNEDPPTFGQGTKVEIK
Consider B7, for which the EC50 in experiment [1] amounted to 0.0072 µM. Also, the Max binding intensity (MFI) in experiment [2] worked out at 1.1e+06 MFI.
